According to patent US20210063414A1, “METHODS FOR PREVENTING AND/OR TREATING BONE LOSS CONDITIONS BY MODULATING IRISIN” (Dana-Farber Cancer Institute, Inc., priority 2018, published 2021):

System: MLO-Y4 cells
Experiment: Integrin-like signaling (pFAK, pZyxin, pAKT, pCREB) in MLO-Y4 cells, immunoblot
Format: cell-based
Experimental: Integrin heterodimer binds to its ligand. The interaction results in phosphorylation of FAK and Zyxin, followed by phosphorylation of AKT (at T308) and CREB. PM is plasma membrane. FIG. 2C and FIG. 2D show the immunoblots. MLO-Y4 cells were seeded and incubated until 60% cell density. The cells were incubated with serum free medium (FreeStyle™ 293 medium) for 4 hours and were treated for indicated time with 10 nM norepinephrine or irisin (FIG. 2C) or indicated concentrations of irisin for 10 minutes (FIG. 2D). Cells were lysed to detect the indicated protein level using immunoblot analysis.
Certain materials and methods were used to generate the results described herein. For example, the data shown in FIG. 1A resulted from MLO-Y4 (an osteocyte-like cell line) cells treated with the indicated concentration of irisin and hydrogen peroxide for 4 hours. Cells were stained with Hoechst 33342 (ThermoFisher Scientific, catalog number H3570) and Eth-D1 (ThermoFisher Scientific, catalog number E1169) and analyzed to determine the percentage of cell death using ImageJ. The data shown in FIG. 2D resulted from MLO-Y4 incubated in serum free medium (FreeStyle™ 293 expression medium, ThermoFisher Scientific, catalog number 12338018) for 4 hours followed by treatment of indicated concentrations of irisin for 10 minutes. Cells were lysed to detect the indicated protein level using immunoblot analysis (Cell Signaling Technology, catalog numbers 3283S, 3285S, 8467S, 3553S, 9198S, and 9104S; Abcam, catalog number ab49900-100ul). The data shown in FIG. 3 resulted from 3T3-F442A cells incubated in serum free medium for 4 hours followed by treatment of indicated concentrations of irisin for 10 minutes. Cells were lysed by RIPA buffer to detect the indicated protein level using immunoblot analysis. The data shown in FIG. 4 were generated from 100 nM flag-tagged irisin (Enzo life sciences, catalog number ADI-908-307-3010) incubated with 5 nM of the indicated 6 his-tag integrins (R & D Systems Inc., catalog numbers 7064-AB-025, 5668-A4-050, 5438-A9-050, 6357-AB-050, and 6579-AV-025) in the presence of RGDS peptide (R & D Systems Inc., catalog number 3498/10) or its control peptide (Enzo Life Sciences, catalog Number BML-P701-0005) followed by immunoprecipitation using 6 his-tag beads (ThermoFisher Scientific, catalog number R901-01). Co-precipitated irisin was analyzed by immunoblot analysis against flag tag (Sigma Aldrich, catalog number A8592). The data shown in FIGS. 5A and 5B were generated from MLO-Y4 cells treated and analyzed as in the experiments used to generate the data shown in FIG. 2D, except that pre-treatment of 100 nM RGDS (FIG. 5A) or echistatin (R & D Systems Inc., catalog number 3202/100U) (FIG. 5B) for 10 minutes was performed before irisin treatment. The data shown in FIGS. 6A and 6B were generated from MLO-Y4 cells incubated in serum free medium for 3 hours followed by treatment of indicated time of 10 nM irisin for 16 hours. RNAs were extracted from the cells and the sclerostin mRNA level was analyzed by qPCR (FIG. 6A) or treated and analyzed as in (FIG. 6A), except that pre-treatment of 10 μM RGDS, RGDyK (Selleck, catalog number S7844), or echistatin was performed for 10 minutes before irisin treatment. The data shown in FIGS. 7A and 7B were generated from 8 week-old mice injected with the indicated dose of irisin for 6 days. Tibias were collected and treated with collagenase to obtain mRNA from the osteocyte-enriched bones. Sclerostin mRNA level was analyzed by qPCR (FIG. 7A). Serum was collected to analyze the sclerostin protein level using ELISA kit (R&D Systems Inc., catalog number MSST00) (FIG. 7B). The data shown in FIG. 8 were generated from 8 week-old mice injected with the indicated dose of irisin for 6 days. Epididymal fats were collected, RNAs were extracted from the tissues, and mRNA levels of the indicated genes were analyzed by qPCR. […]

B1: irisin: secreted cleaved form of FNDC5; recombinant human/mouse irisin with C-terminal his tag produced in HEK293 cells (protein)
chain: DSPSAPVNVTVRHLKANSAVVSWDVLEDEVVIGFAISQQKKDVRMLRFIQEVNTTTRSCALWDLEEDTEYIVHVQAISIQGQSPASEPVLFKTPREAEKMASKNKDEVTMKE
modifications: left off: small tags and cut ends
notes: secreted cleaved form of FNDC5; recombinant human/mouse irisin with C-terminal his tag produced in HEK293 cells
phosphorylation of AKT on threonine 308 (MLO-Y4, 10 nM irisin): phosphorylated on threonine 308
phosphorylation of AKT serine at amino acid 473 (MLO-Y4, 10 nM irisin): not induced
time after which CREB was phosphorylated (MLO-Y4, 10 nM irisin): 5 min
time to phosphorylation of FAK (MLO-Y4, 10 nM irisin): 1 min
phosphorylation of Zyxin (MLO-Y4, irisin dose response, 10 minutes): phosphorylated potently
irisin dose as low as which induced phosphorylation of FAK (MLO-Y4, serum free medium 4 hours, irisin 10 minutes): 10 pM
